Consider three substances from patent US20240018184A1.

Assay [1] concerns the target mAb (sample of Example 11, 4.28 mg/ml). In words: load volume to 35% breakthrough, PCC columns, CIP with 2 M NaOH.
For assay [2], the target named is Cy5-hIgG (Cy5-labelled human immunoglobulin G) (human). In words: confocal microscopy of beads with Cy5-hIgG, after 16 h in 1 M NaOH.
Assay [3] shares this target. In words: confocal microscopy of beads with Cy5-hIgG, after 8 h in 2 M NaOH.
The target in assay [4] is human polyclonal IgG (Gammanorm) (human). The assay is described as follows: pH gradient elution (citrate pH 6-3) from column.

Bounds are passed on as bounds.

“MabSelect SuRe (ligand of the commercial reference matrix)”: the original capacity remaining in assay [1] was less than 80%.
“MabSelect SuRe LX (ligand of the commercial reference matrix)”: in assay [2], the binding capacity lost worked out at 50%. Further, the Ig-binding capacity lost in assay [3] stood at 50%. Moreover, in assay [4], the Elution pH (peak 1) is 4.01 pH and the Elution pH (peak 2) amounted to 3.7 pH.
In assay [4], “Zvar(Q9A, N11E, Q40V, A42K, N43A, L44I)6 (designed binder)” showed an Elution pH (peak 1) of 4.24 pH and an Elution pH (peak 2) of 3.81 pH.
